One test concerns the target T1, FBF-2 RBD + CT (Caenorhabditis elegans, UniProt Q09312).
T1 construct: A cDNA fragment encoding C. elegans FBF-2 RBD + CT (residues 164-632) was cloned into the pSMT3 vector; His6-SUMO (N, cleaved yes); made in house; host or cells: E. coli BL21-CodonPlus (DE3)-RIL
T1 sequence (Q09312 whole entry, looked up): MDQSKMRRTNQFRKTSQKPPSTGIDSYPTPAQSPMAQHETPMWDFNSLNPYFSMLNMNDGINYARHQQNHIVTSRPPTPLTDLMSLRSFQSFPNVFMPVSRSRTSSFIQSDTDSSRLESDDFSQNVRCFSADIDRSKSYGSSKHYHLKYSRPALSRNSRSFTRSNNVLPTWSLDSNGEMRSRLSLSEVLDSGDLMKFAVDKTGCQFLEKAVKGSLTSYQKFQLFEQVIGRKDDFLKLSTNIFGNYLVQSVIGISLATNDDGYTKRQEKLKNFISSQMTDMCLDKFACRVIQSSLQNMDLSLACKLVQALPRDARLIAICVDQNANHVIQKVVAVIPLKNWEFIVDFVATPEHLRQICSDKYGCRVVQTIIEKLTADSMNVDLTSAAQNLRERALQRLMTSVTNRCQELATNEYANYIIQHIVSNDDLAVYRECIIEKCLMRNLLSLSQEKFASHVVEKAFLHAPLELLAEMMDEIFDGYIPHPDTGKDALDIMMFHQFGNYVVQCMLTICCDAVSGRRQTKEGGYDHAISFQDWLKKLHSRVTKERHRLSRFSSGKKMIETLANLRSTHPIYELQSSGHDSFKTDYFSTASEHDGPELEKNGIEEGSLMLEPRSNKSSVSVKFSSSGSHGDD
Description: ITC, peptide into FBF-2 RBD + CT, no RNA. Format: binding, C. elegans. The note with it: mean of two independent replicates; 20 °C, 20 mM HEPES pH 7.4, 150 mM NaCl, 0.5 mM TCEP; one-site model.

Another test deals with T2, FBF-2 RBD + CT L610A (Caenorhabditis elegans, UniProt Q09312, L610A).
T2 construct: A cDNA fragment encoding C. elegans FBF-2 RBD + CT (residues 164-632) was cloned into the pSMT3 vector; His6-SUMO (N, cleaved yes); made in house; host or cells: E. coli BL21-CodonPlus (DE3)-RIL (as for wild type)
T2 sequence (Q09312 164-632 L610A): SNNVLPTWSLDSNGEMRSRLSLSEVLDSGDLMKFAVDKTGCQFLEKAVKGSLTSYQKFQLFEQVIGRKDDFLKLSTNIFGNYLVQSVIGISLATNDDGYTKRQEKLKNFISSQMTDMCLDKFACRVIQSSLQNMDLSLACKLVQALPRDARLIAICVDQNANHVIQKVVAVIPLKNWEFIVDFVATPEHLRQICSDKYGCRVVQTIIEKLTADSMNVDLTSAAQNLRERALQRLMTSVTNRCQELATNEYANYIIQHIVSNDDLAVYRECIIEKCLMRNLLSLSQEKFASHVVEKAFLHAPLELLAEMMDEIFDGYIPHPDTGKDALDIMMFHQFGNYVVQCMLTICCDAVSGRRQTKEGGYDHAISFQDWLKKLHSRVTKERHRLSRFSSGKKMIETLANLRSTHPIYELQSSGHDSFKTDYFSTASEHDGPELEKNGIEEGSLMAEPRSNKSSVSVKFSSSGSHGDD
Format: binding, C. elegans. The note with it: pH 7.4.

A further test deals with T3, FBF-2 RBD (Caenorhabditis elegans, UniProt Q09312).
T3 construct: The FBF-2 RBD protein (residue 164-575) was purified as described previously; His6-SUMO (N, cleaved yes); made in house; host or cells: E. coli BL21-CodonPlus (DE3)-RIL (host inferred: b50 says the procedure was otherwise the same as for RBD + CT)
T3 sequence (Q09312 whole entry, looked up): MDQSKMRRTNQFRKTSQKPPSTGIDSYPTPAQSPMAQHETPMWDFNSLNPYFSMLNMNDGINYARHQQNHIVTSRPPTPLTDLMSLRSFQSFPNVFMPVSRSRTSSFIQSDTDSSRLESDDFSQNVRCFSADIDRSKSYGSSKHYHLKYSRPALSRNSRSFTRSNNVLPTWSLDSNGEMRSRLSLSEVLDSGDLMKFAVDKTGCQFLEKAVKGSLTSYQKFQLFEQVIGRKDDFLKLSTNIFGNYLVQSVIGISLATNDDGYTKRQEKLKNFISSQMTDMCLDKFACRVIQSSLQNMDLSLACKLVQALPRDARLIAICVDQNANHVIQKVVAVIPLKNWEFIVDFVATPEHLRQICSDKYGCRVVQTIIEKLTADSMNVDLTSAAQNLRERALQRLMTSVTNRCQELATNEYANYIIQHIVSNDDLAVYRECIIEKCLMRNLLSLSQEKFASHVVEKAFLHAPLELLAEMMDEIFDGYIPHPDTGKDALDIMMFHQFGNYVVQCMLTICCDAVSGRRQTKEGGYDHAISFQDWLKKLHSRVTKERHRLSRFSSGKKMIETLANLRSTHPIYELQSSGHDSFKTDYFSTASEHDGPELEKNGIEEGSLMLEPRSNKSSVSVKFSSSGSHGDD
The note with it: reported previously, cited from earlier work. The source says:
Given that the core residues of three distinct PIMs—FBF-2 CT, LST-1 A, and LST-1 B—all bind to the same site of FBF-2, we hypothesized that the intramolecular FBF-2 CT binding could compete with LST-1 A and LST-1 B binding. To assess that idea, we investigated how the CT affects the protein interaction affinities of the FBF-2 RBD to LST-1 A and LST-1 B, using isothermal titration calorimetry (ITC, Supplementary Table 3). No RNA was included in these experiments. We first measured the binding affinity of an isolated CT peptide and the FBF-2 RBD (no CT), by titrating the peptide, FBF-2^601–632, ... || Fig. 2 The FBF-2 CT competes with partner proteins for binding to the RBD. Representative isothermal titration calorimetry thermograms (top, differential power [DP] vs time) and corresponding titration curve-fitting graphs (bottom) are shown for interaction between a FBF-2 RBD and FBF-2 CT, c FBF-2 RBD + CT and LST-1 A, d FBF-2 RBD + CT and LST-1 B, e FBF-2 RBD and FBF-2 CT L610A, f FBF-2 RBD + CT L610A and LST-1 A, and g FBF-2 RBD + CT L610A and LST-1 B. Data points on the curve-fitting graphs are shown as open circles. b Previously reported mean Kd from two independent replicates with simila ... || We next compared the protein interaction affinities of LST-1 A or LST-1 B with either FBF-2 RBD + CT or RBD alone (Fig. 2c–g, Supplementary Table 3). For these experiments, we titrated the LST-1 peptide into an ITC cell containing either RBD + CT or RBD.

The next test has as its system gld-1 FBEa RNA. The note with it: LST-1 peptide with FBF-2 RBD (no CT); cited from earlier work. The source says: LST-1 is expressed in GSCs in response to signaling from the stem cell niche. The LST-1 protein is largely unstructured (Fig. 1b), including an N-terminal region that is sufficient for self-renewal of GSCs[22]. This LST-1 IDR region harbors two PUF Interacting Motifs (PIMs), LST-1 A and LST-1 B, that interact with FBF-2, each with a KxxL sequence[17],[22]. Crystal structures of FBF-2 bound to LST-1 A or B identify a seven-residue core region, including the KxxL sequence, that binds to FBF-2 with similar peptide backbone structure[17],[18]. The two LST-1 PIMs are biologically redundant for ... || If the FBF-2 CT reduces RNA-binding affinity (Fig. 3b) and competes with LST-1 for binding (Fig. 2c, d), why then does FBF-2 depend on LST-1 to repress RNAs in nematodes? To address this question, we explored RNA-binding affinities of FBF-2 RBD + CT in the presence of either LST-1 A or LST-1 B (Fig. 6; Supplementary Table 3). In contrast to results with FBF-2 RBD alone[17],[18], both LST-1 A and LST-1 B increased the RNA-binding affinity of FBF-2 RBD + CT.

“Also recorded” adds a separate entry of the source. Like-named read-outs stand apart in the source and are kept apart here.

With “LST-1 A: LST-1 A peptide, residues 19–50, expressed in E. coli (STIAYSKSQHEAPKQLLQLRSEIKPLIPLNQP; left off: His6-SUMO, N-terminal, cleaved)”, the Kd entry with FBF-2 RBD + CT is “No binding; also recorded: too weak to be detected by ITC; also recorded: Not detected”. Besides, the “∆G” value with FBF-2 RBD + CT L610A is -7.62 kcal/mol; in the test with FBF-2 RBD + CT L610A (replicate 1, 20 °C), -7.5 kcal/mol; in the test with FBF-2 RBD (replicate 1), -7.62 kcal/mol; with FBF-2 RBD (replicate 2), -7.65 kcal/mol. For the same substance, the “-T∆S” value was 4.45 kcal/mol with FBF-2 RBD + CT L610A (replicate 1, 20 °C); 4.73 kcal/mol in the test with FBF-2 RBD + CT L610A (replicate 2, 20 °C); 6.07 kcal/mol in the test with FBF-2 RBD (replicate 1); 6 kcal/mol with FBF-2 RBD (replicate 2). Also, the “∆H” value was -12 kcal/mol with FBF-2 RBD + CT L610A (replicate 1, 20 °C); -12.4 kcal/mol with FBF-2 RBD + CT L610A (replicate 2, 20 °C); -13.7 kcal/mol in the test with FBF-2 RBD (replicate 1); -13.6 kcal/mol with FBF-2 RBD (replicate 2). For the same substance, the “effect on RNA-binding affinity of FBF-2 RBD” value in the test with gld-1 FBEa RNA is “no effect on RNA-binding affinity”.

These data come from publication PMC10641069, “Intra- and inter-molecular regulation by intrinsically-disordered regions governs PUF protein RNA binding” (Nature Communications, 2023).
